40 sequences from the nanobody polyreactivity screen of Harvey et al. (2022) can be followed below.

The nature of this data set: yeast display, Sf9 membrane polyspecificity reagent, FACS + sequencing; frameworks hold sequencing errors. The gist of the method: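 In a synthetic yeast display library (Saccharomyces cerevisiae BJ5465), nanobody expression was induced with galactose for 36–48 hours. FACS gates were set low and high (top ~1%) using anti-HA fluorescence for expression and streptavidin fluorescence for binding of the Sf9 membrane reagent. Each polyreactivity label is drawn from the gate of origin.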
With “QVQLVESGGGLVQAGGSLRLSCAASGRIFYFYAMGWYRQAPGKERELVASISYSGGNTYYADSVKGRFTISRDNAKNTVYLQMNSLKPEDTAVYYCNVLPNTGARGYYYWGQGTQVNVSS”, the “polyreactivity (PSR sort gate)” value is given as “low polyreactivity”.

With “QVQLVESGGGLVQAGGSLRLSCAASGRIFYFYAMGWYRQAPGKERELVAVISYGGDRTSYADSVKGRFTISRDNAKNTVYLQMNSLKPEDTAVYYCAARPFYRGYYYWGQGTQVTVSS”, the “polyreactivity (PSR sort gate)” value was “high polyreactivity”.

Consider “QVQLVESGGGLVQAGGSLRLSCAASGRIFYFYTMGWYRQAPGKEREFVAAISDSGDGTYYADSVKGRFTISRDNAKNTVYLQMNSLKPEDTAVYYCAADGTLFSEYYWFFGYHDYWGQGTQVTVSS”, for which the “polyreactivity (PSR sort gate)” value is “high polyreactivity”.

For “QVQLVESGGGLVQAGGSLRLSCAASGRIFYGNAMGWYRQAPGKERELVARISSGSSTNYADSVKGRFTISRDNAKNTVYLQMNSLKPEDTAVYYCAARYTARRQSYGYWGQGTQVTVSS”, the “polyreactivity (PSR sort gate)” value is “high polyreactivity”.

“QVQLVESGGGLVQAGGSLRLSCAASGRIFYGNAMGWYRQAPGKERQLVAAITDGGSTNYADSVKGRFTISRDNAKNTVYLQINSLKPEDTAVYYCNADNILYWSTLDYWGQGTQVTVSS”: the “polyreactivity (PSR sort gate)” value was “low polyreactivity”.

In the case of “QVQLVESGGGLVQAGGSLRLSCAASGRIFYGNDRGWYRQAPGKERELVAAITWSGGSTYYADSVKGRFTISRDNAKNTVYLQMNSLKPEDTAVYYCAAVPRRGWDIRRYDSWGQGTQVTVSS”, the “polyreactivity (PSR sort gate)” value is recorded as “high polyreactivity”.

As to “QVQLVESGGGLVQAGGSLRLSCAASGRIFYGYAMGWYRQAPGKEREFVAAITSGGRTYYADSVKGRFTISRDNAKNTVYLQMNSLKPEDTAVYYCAAAQYYRYGYWGQGTQVTVSS”, the “polyreactivity (PSR sort gate)” value was “high polyreactivity”.

“QVQLVESGGGLVQAGGSLRLSCAASGRIFYGYAMGWYRQAPGKEREFVARINVSGTSTFYADSVKGRFTISRDNAKNSVYLQMHSLKPEDTAVYYCAARGLPSNYYYYVHGYIMDYWGQGTQVTVSS”: the “polyreactivity (PSR sort gate)” value is given as “low polyreactivity”.

For “QVQLVESGGGLVQAGGSLRLSCAASGRIFYGYAMGWYRQAPGKERELVAAITRSSSTYYADSVKGRFTISRDNAKNTVYLQMNSLKPEDTAVYYCNARVWAKYDYWGQGTQVTVSS”, the “polyreactivity (PSR sort gate)” value is “high polyreactivity”.

On to “QVQLVESGGGLVQAGGSLRLSCAASGRIFYGYTMGCYRQAPGKETELVASITIRGSRTYYADSVKGRFTISRDNAKNTVYVQMNSLKPEDTAVYYCAADFVPARTVHRYDYWGQGTQVTVSS”, for which the “polyreactivity (PSR sort gate)” value is given as “low polyreactivity”.

On to “QVQLVESGGGLVQAGGSLRLSCAASGRIFYGYTMGWYRQAPGKERELVAAISWSGGSTYYADSVKGRFTISRDNAKNTVYLQLNSLKPEDTAVYYCNAVTLWYIYGWDYYYWGQGTQVTVSS”, for which the “polyreactivity (PSR sort gate)” value is given as “high polyreactivity”.

Turning to “QVQLVESGGGLVQAGGSLRLSCAASGRIFYGYTMGWYRQAPGKERELVAAITRSTGSTYYADSVKGRFTISRDNAKNTVYLQMNSLKPEDTAVYYCAKYGYTNTPKSPMDYWGQGTQVTVSS”, the “polyreactivity (PSR sort gate)” value is given as “low polyreactivity”.

In the case of “QVQLVESGGGLVQAGGSLRLSCAASGRIFYHNAMGWYRQAPGKERELVAAITWSGGSTYYADSVKGRFTISRDNAKNTVYLQMNSLKPEDTAVYYCAAYFYGRSYGYDYWGQGTQVTVSS”, the “polyreactivity (PSR sort gate)” value is reported as “high polyreactivity”.

With “QVQLVESGGGLVQAGGSLRLSCAASGRIFYHYAMGWYRQAPGKERELVAGINYRGGSTTYADSVKGRFTISRDNAKNTVYLQMNSLKPEDTAVYYCATLYPWKFPIRETGFDSWGQGTQVTVSS”, the “polyreactivity (PSR sort gate)” value was “low polyreactivity”.

On to “QVQLVESGGGLVQAGGSLRLSCAASGRIFYHYAMGWYRQAPGTERELVAAINSSGGSTHYADSVKGRFTISRDNAKNTVYLQMNSLKPVDTAVYYCAADGYWRDYSGYWDYYYIYDYWGQGTQVTVSS”, for which the “polyreactivity (PSR sort gate)” value is “low polyreactivity”.

Turning to “QVQLVESGGGLVQAGGSLRLSCAASGRIFYHYPMGWYRQAPGKEREFVAAISLRAGSTYYADSVKGRFTISRYNAKNNVYLQMNSLKPEDTAFYYCAARRASYVTSRYDYWGQGTQVTVSS”, the “polyreactivity (PSR sort gate)” value was “high polyreactivity”.

Regarding “QVQLVESGGGLVQAGGSLRLSCAASGRIFYINDMGWYRQAHGKERELVAAISASGGSTYYADSVKGRFTISRDNAKNTVYLQMNSLKPEDTAVYYCAAVYFHPGYDLFDYWGQGTQVTVSS”, the “polyreactivity (PSR sort gate)” value is recorded as “low polyreactivity”.

On to “QVQLVESGGGLVQAGGSLRLSCAASGRIFYIYAMGWYRQAPGKERELVAAISSGGTTNYADSVKGRFTISRDNAKNTVYLQMNSLKPEDTAVYYCAAYWRSRNRFYWGQGTQVTVSS”, for which the “polyreactivity (PSR sort gate)” value is “high polyreactivity”.

In the case of “QVQLVESGGGLVQAGGSLRLSCAASGRIFYKYAMGWYRQAPGKERELVAAISYSGGSTYYADSVKGRFTISRDNAKNTVYLQMKSLKPEDTAVYYCNAKPPYGVRSWGDYWGQGTQVTVSS”, the “polyreactivity (PSR sort gate)” value is reported as “low polyreactivity”.

“QVQLVESGGGLVQAGGSLRLSCAASGRIFYLNAMGWYRQAPGKERELVAAITRSAASTHYADSVKGRFTISRDNAKNTVYLQMNSLKPEDTAVYYCAARFWYDYRHYDYWGQGTQVTVSS”: the “polyreactivity (PSR sort gate)” value is “low polyreactivity”.

For “QVQLVESGGGLVQAGGSLRLSCAASGRIFYLNAMGWYRQAPGKERQLVATITSGGSTNYADSVKGRFTISRDNAKNTVYLQMNSLKPEDTAVYYCAAGVSWYGPYDYLWFYAFDYWGQGTQVTVSS”, the “polyreactivity (PSR sort gate)” value is “low polyreactivity”.

With “QVQLVESGGGLVQAGGSLRLSCAASGRIFYLNGKGWYRQAPGKERELVAAISSSDDSTYYADSVKGRFTISRDNAKNTVYLQMKSLKPEDTAVYYCAAGYHQVQNYGDAYYWSELYSWGQGTQVTVSS”, the “polyreactivity (PSR sort gate)” value is listed as “low polyreactivity”.

As to “QVQLVESGGGLVQAGGSLRLSCAASGRIFYLNGMGWYRQAPGKERELLAAISSSDDSTYYADSVKGRFTISRDNAKNTVYLQMISLKPEDTAVYYCAAGYHHVQNYGDAYYWSELYSWGQGTQVTVSS”, the “polyreactivity (PSR sort gate)” value was “low polyreactivity”.

For “QVQLVESGGGLVQAGGSLRLSCAASGRIFYLNVMGWYRQAPGKERELVAAITRRDVTTYADSVKGRFTISRDNAKNTVYLEMNSLKPEDTAVYYCNAVYYNWIGFDYWGQGTQVTVSS”, the “polyreactivity (PSR sort gate)” value is listed as “low polyreactivity”.

Regarding “QVQLVESGGGLVQAGGSLRLSCAASGRIFYLYTMAWYRQAPGKERELVAAITWSGGRTFYADSVKGRFTISRDNAKNTVYLQMNSLKPEDTAVYYCAARAYDSVGKYYYWGQGTQVNVSS”, the “polyreactivity (PSR sort gate)” value was “high polyreactivity”.

Turning to “QVQLVESGGGLVQAGGSLRLSCAASGRIFYLYTMGWYRQAPGKERELVAAITWSGGRTFYADSVKGRFTISRDNAKNTVYLQMNSLKPEDTAVYYCAARAYDSVGKYYYWGQGTQVTVSS”, the “polyreactivity (PSR sort gate)” value is on record as “high polyreactivity”.

As for “QVQLVESGGGLVQAGGSLRLSCAASGRIFYNNVMGCYRQAPGKERELVAAISGNGGSTYYADSVKGRFTISRDNAKNTVYLQMNSLKPEDTAVYYCAARSSFRTLIFYQKFDYWGQGSQVTVSS”, the “polyreactivity (PSR sort gate)” value is “low polyreactivity”.

Take “QVQLVESGGGLVQAGGSLRLSCAASGRIFYNYAMGWYRQAPGKERELVAAISGSGGSTYYADSVKGRFTISRDNAKNTVYLQMNSLKPEDTEVYYCSTSGPQYYSRNFDYWGQGTQVTVSS”: the “polyreactivity (PSR sort gate)” value is given as “low polyreactivity”.

Take “QVQLVESGGGLVQAGGSLRLSCAASGRIFYNYAMRWYRQAPGKERELVAAISGSGGSTYYADSVKGRFTISRDNAKNTVYLQMNSLKPEDTAVYYCSTSGPQYYSRNFDYWGQGTQVTVSS”: the “polyreactivity (PSR sort gate)” value is reported as “low polyreactivity”.

For “QVQLVESGGGLVQAGGSLRLSCAASGRIFYNYGMGWYRQAPGKERELVAAISSSGGSTSYADSVKGRFTISRDNAKNTVYLQMNSLKPEDTAVYYCAASWPRWWRFGYWGQGTQVTVSS”, the “polyreactivity (PSR sort gate)” value is reported as “low polyreactivity”.

On to “QVQLVESGGGLVQAGGSLRLSCAASGRIFYPNALGWYRQAPGTERELVAAITWRGGRTYYADSVKGRFTISRDNAKNTVYLQMNSLKPEDTAVYYCNAVAPGKYNHWGQGTQVTVSS”, for which the “polyreactivity (PSR sort gate)” value was “high polyreactivity”.

As to “QVQLVESGGGLVQAGGSLRLSCAASGRIFYPNAMGWYRPAPGKVRELVAGISRSGGSTYYADSVKGRFTLSRDNAKNTVYLQKNSLKPEDTAVYYCAARYYASDRHFRGDYWGQGTQVTVSS”, the “polyreactivity (PSR sort gate)” value was “low polyreactivity”.

For the sequence “QVQLVESGGGLVQAGGSLRLSCAASGRIFYPYAMAWYRQAPGKERELVAAISGSGARKYYADSVKGRFTISRDNAKNTVYLQMNSLKPEDTAVYYCARYQSNSDVYWGQGTQVTVSS”, the “polyreactivity (PSR sort gate)” value is “high polyreactivity”.

Take “QVQLVESGGGLVQAGGSLRLSCAASGRIFYPYAMGWSRQAPGKERELVASISGRGTTTYYADSVKGRFTISRDNAKNTVYLQMNSLKPEDTGVYYCNAYPPTQYGYYYWGQGTQVTVSS”: the “polyreactivity (PSR sort gate)” value is “high polyreactivity”.

As for “QVQLVESGGGLVQAGGSLRLSCAASGRIFYPYAMGWYRPAPGKERELVAVINGSGGSTYYADSVKGRFTISRDNAKNTVYLPMNSLKPEDTAVYYCAADYPKTYTSKFNYWGQGTQVTVSS”, the “polyreactivity (PSR sort gate)” value is recorded as “high polyreactivity”.

In the case of “QVQLVESGGGLVQAGGSLRLSCAASGRIFYPYAMGWYRQAPGKERELVAAIDFSDGNSYYADSVKGRFTISRDNAKNTVYLQMYSLKPEDTAVYYCAVDYTGAWIGVWYDYWGLGTQVTVSS”, the “polyreactivity (PSR sort gate)” value is “high polyreactivity”.

Take “QVQLVESGGGLVQAGGSLRLSCAASGRIFYPYAMGWYRQAPGKERELVAAIDWTAGGTYYADSVKGRFTISRDNAKNTVYLQMNSLKPEDTAVYYCAAEYYIEANGDYWGQGTQVTVSS”: the “polyreactivity (PSR sort gate)” value is “low polyreactivity”.

In the case of “QVQLVESGGGLVQAGGSLRLSCAASGRIFYPYAMGWYRQAPGKERELVADISSAGSTYYADSVKGRFTISRDNAKNTVYLQMNSLKPEDTAVYYCAADRTSGAYYFRFLYDRDYWGQGTQVTVSS”, the “polyreactivity (PSR sort gate)” value is reported as “low polyreactivity”.

For the sequence “QVQLVESGGGLVQAGGSLRLSCAASGRIFYPYAMGWYRQAPGKERELVAVINGSGGSTYYADSVKGRFTISRDNAKNTVYLQMNSLKPEDTAVYYCAAYFGHYWRYYYWGQGSQVTVSS”, the “polyreactivity (PSR sort gate)” value was “high polyreactivity”.

Consider “QVQLVESGGGLVQAGGSLRLSCAASGRIFYQNAMGWYRQAPGKERELVAAISSSGDSTYADSVKGRFTISRDNAKNTVYLQMNSLKPEDTAVYYCAAGVGWEFDYWRQGTQVTVSS”, for which the “polyreactivity (PSR sort gate)” value is recorded as “low polyreactivity”.
